Results taken from patent US20260002137.

What was measured:
Test in all cases: cell_activity
[1] = tested on: ProCre-LRGAG (cyclized sCre with AVP site) (Escherichia phage P1?); conditions: 293T; without AVP 4.5±0.6%; with AVP 40±1%; FLEx module with mCherry removed
[2] = tested on: ProCreHRV (cyclized sCre with LEVLFQGP site) (Escherichia phage P1?); conditions: 293T; without HRV 3C protease 5±1%; with HRVp 49±4%; FLEx.2 module
[3] = tested on: cysCreTEV (cyclized sCre with ENLYFQS site) (Escherichia phage P1?); conditions: 293T; uncleaved (mock); with TEVp GFP MFI similar to non-cyclized sCre
[4] = tested on: sCre (truncated Cre, residues 19-343) (Escherichia phage P1?); conditions: 293T; by GFP MFI; similar % GFP+ cells as full-length

FLEx DiO cassette with loxP and lox2272 pairs
activity [1]: 4.5 % GFP+ cells
activity [2]: 5 % GFP+ cells
activity [3]: 3.2 % GFP+ cells
Cre recombination activity (GFP reporter MFI) (% of full-length Cre) [4]: 77
